The values below come from publication PMC8826447 (2022).

The target of the assay is ASF1 (Homo sapiens, UniProt Q9Y294).
Sequence of ASF1 (Q9Y294 whole entry): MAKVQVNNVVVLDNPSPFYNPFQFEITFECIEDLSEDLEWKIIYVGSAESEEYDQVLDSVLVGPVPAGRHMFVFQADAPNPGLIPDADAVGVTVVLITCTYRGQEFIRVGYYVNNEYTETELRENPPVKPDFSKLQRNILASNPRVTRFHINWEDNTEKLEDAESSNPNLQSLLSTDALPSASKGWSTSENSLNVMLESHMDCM

B1: TLK2 (protein)
chain: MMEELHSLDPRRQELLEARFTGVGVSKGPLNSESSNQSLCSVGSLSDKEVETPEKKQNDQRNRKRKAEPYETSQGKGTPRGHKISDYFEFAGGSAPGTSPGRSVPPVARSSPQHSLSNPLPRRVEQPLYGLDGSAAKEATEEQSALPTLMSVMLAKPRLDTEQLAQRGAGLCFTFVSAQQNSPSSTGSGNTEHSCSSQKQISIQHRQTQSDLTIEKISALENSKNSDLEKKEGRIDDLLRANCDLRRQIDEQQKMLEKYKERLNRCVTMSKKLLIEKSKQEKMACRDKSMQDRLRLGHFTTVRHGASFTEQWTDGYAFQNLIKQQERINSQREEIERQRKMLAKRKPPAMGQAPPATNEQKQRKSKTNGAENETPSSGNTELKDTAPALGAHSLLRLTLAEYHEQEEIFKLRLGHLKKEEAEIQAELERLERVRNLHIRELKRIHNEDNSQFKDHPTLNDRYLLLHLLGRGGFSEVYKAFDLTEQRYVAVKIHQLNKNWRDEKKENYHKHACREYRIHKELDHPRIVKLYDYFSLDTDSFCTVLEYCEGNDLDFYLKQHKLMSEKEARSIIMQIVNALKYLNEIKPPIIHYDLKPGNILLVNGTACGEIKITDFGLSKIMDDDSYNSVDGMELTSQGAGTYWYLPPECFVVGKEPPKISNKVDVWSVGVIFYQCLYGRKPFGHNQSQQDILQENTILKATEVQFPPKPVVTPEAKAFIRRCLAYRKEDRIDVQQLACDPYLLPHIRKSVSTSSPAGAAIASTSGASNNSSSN
As usually defined, the Kd is a measure of binding affinity in units of concentration. High values mean lower affinity, low ones higher affinity. Turning to B1, the dissociation constant (Kd) is roughly 2 µM.
